Each block holds one binder with its values, some of them ahead of it. Ends that are not written are not given here.
Assays:
Par3 PDZ3 [1] = biological target: T1, Par3 PDZ3 (rat, UniProt Q9Z340 582-685); experiment: FP
Par3 PDZ2 = Par3 PDZ2 (Rattus norvegicus); experiment: FP
Par3 PDZ3 G600,602 A = Par3 PDZ3 G600,602 A (rat, UniProt Q9Z340 582-685, G600,602 A (G600A) | G600,602 A (G602A)); experiment: FP
Par3 PDZ1 = Par3 PDZ1 (rat, UniProt Q9Z340 1-1337); experiment: FP
Par3 PDZ3 [2] = biological target: T1, Par3 PDZ3; experiment: FP; 0% 1,6-hexanediol
Par3 PDZ3 [3] = biological target: T1, Par3 PDZ3; experiment: FP; 5% 1,6-hexanediol
Par3 PDZ3 [4] = biological target: T1, Par3 PDZ3; experiment: FP; 10% 1,6-hexanediol
Par3 PDZ3 [5] = biological target: T1, Par3 PDZ3; experiment: FP; 25% 1,6-hexanediol

T1 sequence (Q9Z340 582-685): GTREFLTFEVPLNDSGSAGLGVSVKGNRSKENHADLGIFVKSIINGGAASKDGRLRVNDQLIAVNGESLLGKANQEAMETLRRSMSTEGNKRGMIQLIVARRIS
Chain of Par3 PDZ3 G600,602 A (Q9Z340 582-685 G600A/G602A): as the sequence (Q9Z340 582-685) above, with G19A, G21A counted along it
Chain of Par3 PDZ2 (Rattus norvegicus) (chain, as listed by the source): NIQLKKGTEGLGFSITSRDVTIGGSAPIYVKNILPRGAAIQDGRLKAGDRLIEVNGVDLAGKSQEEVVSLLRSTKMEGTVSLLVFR
Chain of Par3 PDZ1 (Q9Z340 whole entry): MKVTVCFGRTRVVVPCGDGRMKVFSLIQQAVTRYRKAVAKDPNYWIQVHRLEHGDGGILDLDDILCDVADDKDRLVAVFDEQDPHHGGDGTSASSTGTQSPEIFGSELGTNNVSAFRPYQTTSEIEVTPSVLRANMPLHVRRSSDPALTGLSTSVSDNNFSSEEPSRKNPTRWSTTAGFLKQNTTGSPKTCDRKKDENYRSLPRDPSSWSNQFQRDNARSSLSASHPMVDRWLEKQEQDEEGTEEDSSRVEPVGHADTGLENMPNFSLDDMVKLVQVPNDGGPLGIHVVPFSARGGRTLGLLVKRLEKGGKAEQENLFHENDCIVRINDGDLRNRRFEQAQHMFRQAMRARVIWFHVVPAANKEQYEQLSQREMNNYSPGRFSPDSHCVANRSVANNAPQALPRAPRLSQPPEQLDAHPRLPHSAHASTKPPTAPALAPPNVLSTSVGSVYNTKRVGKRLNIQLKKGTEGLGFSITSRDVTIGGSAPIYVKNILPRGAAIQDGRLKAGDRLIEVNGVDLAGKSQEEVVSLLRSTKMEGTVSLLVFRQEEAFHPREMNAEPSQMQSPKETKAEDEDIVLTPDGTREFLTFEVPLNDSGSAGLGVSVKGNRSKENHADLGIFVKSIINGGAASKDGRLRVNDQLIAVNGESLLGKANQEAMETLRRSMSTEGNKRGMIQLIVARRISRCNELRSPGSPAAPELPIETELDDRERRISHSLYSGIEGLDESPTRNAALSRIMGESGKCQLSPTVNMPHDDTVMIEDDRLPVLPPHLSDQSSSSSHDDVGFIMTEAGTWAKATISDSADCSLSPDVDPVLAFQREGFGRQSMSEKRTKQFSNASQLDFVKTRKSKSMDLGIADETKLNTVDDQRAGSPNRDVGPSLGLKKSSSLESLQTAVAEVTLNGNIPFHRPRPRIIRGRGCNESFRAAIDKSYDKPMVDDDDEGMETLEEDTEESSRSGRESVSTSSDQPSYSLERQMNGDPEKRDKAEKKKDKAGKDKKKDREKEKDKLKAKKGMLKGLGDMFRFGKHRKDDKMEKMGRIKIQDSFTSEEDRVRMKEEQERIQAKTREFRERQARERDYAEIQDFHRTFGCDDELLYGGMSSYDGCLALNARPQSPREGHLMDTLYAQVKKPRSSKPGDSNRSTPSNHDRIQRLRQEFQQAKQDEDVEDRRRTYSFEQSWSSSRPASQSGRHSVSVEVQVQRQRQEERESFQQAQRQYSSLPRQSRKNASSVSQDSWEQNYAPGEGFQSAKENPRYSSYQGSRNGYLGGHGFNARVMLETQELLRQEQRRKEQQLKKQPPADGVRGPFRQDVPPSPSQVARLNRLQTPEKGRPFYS

- Kd (Par3 PDZ3 [1]): 172 µM
B1: FITC-labeled Par6α PBM peptide (peptide)
peptide: MRGDVSGFSL
modifications: also: FITC label, position not given here

- Kd (Par3 PDZ3 [1]): 1.3 µM
B2: FITC-labeled Par6γ PBM peptide (peptide)
peptide: VEEHGPAITL
modifications: also: FITC label, position not given here

- Kd (Par3 PDZ2): 161 µM
- Kd (Par3 PDZ3 [1]): 1.1 µM
- Kd (Par3 PDZ3 G600,602 A): 20 µM
- Kd (Par3 PDZ1): 104 µM
- Kd (Par3 PDZ3 [2]): 1.1 µM
- Kd (Par3 PDZ3 [3]): 4.9 µM
- Kd (Par3 PDZ3 [4]): 9.7 µM
- Kd (Par3 PDZ3 [5]): 22 µM
B3: FITC-labeled Par6β PBM peptide (peptide)
peptide: LEEDGTIITL
modifications: also: FITC label, position not given here

Source: paper PMC7211019 (2020)
